Source: patent publication US20260242478A1 (published 2026)
Where no end group is shown, it is not given here.

Key:
[1] = biological target: T1, Anti-PSMA Fab (SEQ ID NOs: 19, 20); test: phage binding ELISA, clonal phage on plate-captured biotinylated PSMA Fab
T1 construct: Biotinylated and captured on neutravidin coated plates in the phage ELISA; also called 006 PSMA Fab
Experimental: (§1) Clonal phage were harvested as crude supernatants and screened via standard ELISAs. […] Prior to the addition of clonal phage. wells were incubated with blocking buffer and PSMA antigen or blocking buffer alone. Without washing or aspirating, clonal phage supernatants were then added to the wells and incubated for a short time. Wells were then washed followed by detection of bound phage using a horse radish conjugated anti-M13 antibody.

[2] = biological target: T1, Anti-PSMA Fab (SEQ ID NOs: 19, 20); test: phage binding ELISA on plate-captured PSMA Fab, wells pre-incubated with PSMA antigen as competitor
Experimental: as §1

[3] = biological target: T2, Anti-PSMA Fab (SEQ ID NOs: 19, 20); test: phage ELISA; biotinylated PSMA Fab on neutravidin plate, bound phage detected with anti-M13-HRP;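 note: crude clonal phage supernatants added, without a wash, to wells pretreated with PSMA antigen in blocking buffer or with blocking buffer only, then briefly incubated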
T2 construct: Biotinylated and captured on neutravidin coated plates in the phage ELISA; also called 006 PSMA Fab
Experimental: as §1

[4] = biological target: T2, Anti-PSMA Fab (SEQ ID NOs: 19, 20); test: phage ELISA; PSMA Fab on plate pre-incubated with PSMA antigen as competitor, anti-M13-HRP detection;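 note: clonal phage from crude supernatants added without washing to wells preblocked with or without PSMA antigen, washed, bound phage read out by ELISA with HRP-linked anti-M13 antibody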
Experimental: as §1

PSMA Fab (006 PSMA Fab) [5] = biological target: T3, PSMA Fab (006 PSMA Fab); test: clonal phage ELISA; biotinylated PSMA Fab on neutravidin plate, blocking buffer alone; anti-M13-HRP detection;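 note: clonal phage applied as crude supernatants to wells preincubated with blocking buffer, binding read by ELISA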
T3 construct: also called Anti-PSMA Fab; anti-PSMA Fab
Experimental: as §1

PSMA Fab (006 PSMA Fab) [6] = biological target: T3, PSMA Fab (006 PSMA Fab); test: clonal phage ELISA; biotinylated PSMA Fab on neutravidin plate pre-incubated with competitor PSMA antigen; anti-M13-HRP detection
Experimental: as §1

| Binder | Anti-PSMA Fab (SEQ ID NOs: 19, 20) signal [1] | Anti-PSMA Fab signal in the presence of PSMA [2] | Phage binding ELISA, Anti-PSMA Fab signal [3] | Phage binding ELISA, Anti-PSMA Fab signal in the presence of PSMA [4] | other results |
| --- | --- | --- | --- | --- | --- |
| LAYWCTPAWMCEGF [Phage-2226] | 1.57 | 0.112 |  |  |  |
| TDMWCIPPWMCERI [Phage-2230] | 1.57 | 0.0846 |  |  |  |
| THNWCTPQWMCDGF (Tested as clonal phage supernatant, with the peptide fused to pIII of the bacteriophage) [Phage-2210] |  |  | 1.6 | 0.0628 |  |
| VPKQCVPEWMCSGF (Tested as clonal phage supernatant, with the peptide fused to pIII of the bacteriophage) [Phage-2218] |  |  | 1.59 | 0.0779 |  |
| LFKVCTPSWMCSGF [Phage-2225] | 1.58 | 0.0813 |  |  |  |
| WAQWCTPSWMCEGF (Tested as clonal phage supernatant, with the peptide fused to pIII of the bacteriophage) [Phage-2216] |  |  | 1.59 | 0.0929 |  |
| LEKWCMPPWMCSGT (cysteine pairing not given here; also: displayed on bacteriophage by fusion to pIII) [Phage-2313] |  |  |  |  | Phage binding ELISA signal, Anti-PSMA Fab (PSMA Fab (006 PSMA Fab) [5]): 1.47; Phage binding ELISA signal, Anti-PSMA Fab in presence of PSMA antigen (PSMA Fab (006 PSMA Fab) [6]): 0.0701 |
| GMLACTPAWMCEGF [Phage-2316] |  |  |  |  | Phage binding ELISA signal, Anti-PSMA Fab (PSMA Fab (006 PSMA Fab) [5]): 1.47; Phage binding ELISA signal, Anti-PSMA Fab in presence of PSMA antigen (PSMA Fab (006 PSMA Fab) [6]): 0.0923 |
| PRKWCIPAWMCEII [Phage-2236] | 1.56 | 0.0733 |  |  |  |
| FNKWCVPAWMCSDM [Phage-2235] | 1.56 | 0.0946 |  |  |  |
| EARWCTPPWMCAYM (cysteine pairing not given here; also: displayed on bacteriophage by fusion to pIII) [Phage-2315] |  |  |  |  | Phage binding ELISA signal, Anti-PSMA Fab (PSMA Fab (006 PSMA Fab) [5]): 1.47; Phage binding ELISA signal, Anti-PSMA Fab in presence of PSMA antigen (PSMA Fab (006 PSMA Fab) [6]): 0.0724 |
| EVKWCIPSWMCESE (Tested as clonal phage supernatant, with the peptide fused to pIII of the bacteriophage) [Phage-2217] |  |  | 1.59 | 0.0904 |  |
| EIQWCTPSWMCPWL [Phage-2233] | 1.57 | 0.0668 |  |  |  |
| TEKWCIPSWMCEIS (Tested as clonal phage supernatant, with the peptide fused to pIII of the bacteriophage) [Phage-2212] |  |  | 1.6 | 0.0837 |  |
| SENWCIPAWMCSGF (Tested as clonal phage supernatant, with the peptide fused to pIII of the bacteriophage) [Phage-2219] |  |  | 1.59 | 0.111 |  |
| FVNWCIPTWMCPEI [Phage-2314] |  |  |  |  | Phage binding ELISA signal, Anti-PSMA Fab (PSMA Fab (006 PSMA Fab) [5]): 1.47; Phage binding ELISA signal, Anti-PSMA Fab in presence of PSMA antigen (PSMA Fab (006 PSMA Fab) [6]): 0.233 |
| VSAWCIPPWMCGTN [Phage-2237] | 1.56 | 0.0801 |  |  |  |
| PEKWCIPEWMCDAL (Tested as clonal phage supernatant, with the peptide fused to pIII of the bacteriophage; Read from the row with '-' as the Peptide-180 residue: PEKWCIPEWMCDAL) [Phage-2214] |  |  | 1.6 | 0.0578 |  |

| Binder | Anti-PSMA Fab (SEQ ID NOs: 19, 20) signal [1] | Anti-PSMA Fab signal in the presence of PSMA [2] | Phage binding ELISA, Anti-PSMA Fab signal [3] | Phage binding ELISA, Anti-PSMA Fab signal in the presence of PSMA [4] | other results |
| --- | --- | --- | --- | --- | --- |
| SELWCIPPWMCNFL [Phage-2227] | 1.57 | 0.0684 |  |  |  |
| ALHWCIPEWMCSSM (Tested as clonal phage supernatant, with the peptide fused to pIII of the bacteriophage) [Phage-2208] |  |  | 1.61 | 0.103 |  |
| FLKWCTPEWMCSDV [Phage-2223] | 1.58 | 0.128 |  |  |  |
| QDHWCVPQWMCEML (Tested as clonal phage supernatant, with the peptide fused to pIII of the bacteriophage) [Phage-2209] |  |  | 1.61 | 0.07 |  |
| PGKWCIPAWMCSLV (Tested as clonal phage supernatant, with the peptide fused to pIII of the bacteriophage) [Phage-2211] |  |  | 1.6 | 0.157 |  |
| LSKWCIPEWMCAVM (cysteine pairing not given here; also: pIII fusion on bacteriophage (not given here)) [Phage-2231] | 1.57 | 0.0848 |  |  |  |
| AIKWCTPPWMCDWH [Phage-2224] | 1.58 | 0.131 |  |  |  |
| LVKWCIPQWMCEQA [Phage-2228] | 1.57 | 0.0712 |  |  |  |
| MPNWCTPTWMCQGF [Phage-2234] | 1.57 | 0.0682 |  |  |  |
| VIPLCSPPWMCFMS (Tested as clonal phage supernatant, with the peptide fused to pIII of the bacteriophage) [Phage-2213] |  |  | 1.6 | 0.0631 |  |
| PTKWCIPEWMCSVI (Tested as clonal phage supernatant, with the peptide fused to pIII of the bacteriophage) [Phage-2207] |  |  | 1.61 | 0.0587 |  |
| QLNWCRPAWMCEGF [Phage-2232] | 1.57 | 0.128 |  |  |  |
| GVKWCTPPWMCEVA (Tested as clonal phage supernatant, with the peptide fused to pIII of the bacteriophage) [Phage-2215] |  |  | 1.59 | 0.0672 |  |
| EPKWCTPEWMCLNL (Tested as clonal phage supernatant, with the peptide fused to pIII of the bacteriophage) [Phage-2220] |  |  | 1.58 | 0.0915 |  |
| TEKWCIPQWMCEAT (cysteine pairing not given here; also: displayed on phage, fused to pIII, Peptide-180 library clone, tested as clonal phage (peptide fused to the pIII filament of the bacteriophage)) [Phage-2222] | 1.58 | 0.0783 |  |  |  |
| LLKWCTPPWMCELH [Phage-2229] | 1.57 | 0.0932 |  |  |  |
| GHQWCIPQWMCVGL (Tested as clonal phage supernatant, with the peptide fused to pIII of the bacteriophage) [Phage-2221] |  |  | 1.58 | 0.0809 |  |
